Measurements from PMC3871700, “Unusual N-Prenylation in Diazepinomicin Biosynthesis: The Farnesylation of a Benzodiazepine Substrate Is Catalyzed by a New Member of the ABBA Prenyltransferase Superfamily” (PLoS ONE, 2013).

B1: DzmP (Micromonospora sp. RV115) (protein)
chain: MSGTPEVAELYSTIEESARQLDVPCSRDRVWPVLSAYGDAFAHPEAVVAFRVATALRHAGELDCRFRTHPDDRDPYASAIARGLTPRTDHPIGGLLAEVHRRCPVESHGIDFGVVGGFKKIYAAFAPDELQVASVLAGIPAMPRSLAANAGFFTRHGLDDRVGVLGFDYPARTVNVYFNDVPRECFEPETIRSTLRRTGMAEPSEQMLRLGAGAFGLYVTLGWDSPEIERICYAAATTDLTTLPVPVEPEIEKFVKSVPYGGGDRKFVYGVALTPKGEYYKLESHYKWKPGAVNFI
notes: His8-tagged DzmP (296 amino acids)
B2: Ssrg_00986 (Streptomyces griseoflavus Tu4000) (protein)
chain: MSGTSEADEICSAVTETAGRLGIAFSRDKVWPILSAYGDAFAHAMPLAFRMATGPQHAGDVDCRFITHPKDRNPYPLAVSKGLTPKTSHPVGTLLSEIEERFPIDGYGIDFGVVNGFTKVYAGFAPQDLQNASKLVEIPAMPRSLAGNFDFFVRHGLDDKVAFVAVDYLHRTVNVYFNDVPAACFESDGIRRMLRDLGLPGPSDRMLGIGGQAFGLYITLNWDSPAIERFCFGVTTTDLSSLPVSIEPQLEKFAHCVPYGGADRKFVYGVAAAPEGEYYKLETHYKWNPGTVAFI
notes: His8-tagged Ssrg_00986 (295 amino acids)

Key:
Assay in all cases: purified protein
purified protein [1] = substrate: CC(C)=CCC/C(C)=C/COP(=O)(O)OP(=O)(O)O; settings: […],6-DHN as co-substrate; Mg2+ stimulates but is not required
purified protein [2] = substrate: CC(C)=CCC/C(C)=C/CC/C(C)=C/CO[P@@](=O)(O)OP(=O)(O)O; settings: […],6-DHN as co-substrate; Mg2+ stimulates but is not required
purified protein [3] = substrate: O=C1Nc2ccccc2Nc2ccccc21; assay type: biochemical, Micromonospora sp. RV115; settings: FPP as co-substrate; Mg2+ stimulates but is not required
purified protein [4] = substrate: Oc1ccc2c(O)cccc2c1; assay type: biochemical, Micromonospora sp. RV115; settings: FPP as co-substrate; Mg2+ stimulates but is not required
purified protein [5] = substrate: Oc1ccc2c(O)cccc2c1; assay type: biochemical, Streptomyces griseoflavus; settings: FPP as co-substrate; Mg2+ stimulates but is not required

Row | Protein | Km (purified protein [1]) | Km (purified protein [2]) | Km (purified protein [3]) | K0.5 (purified protein [4]) | K0.5 (purified protein [5])
1 | B1 | 4.9 ± 0.9 µM | 20 µM | 133 ± 30 µM | 18 ± 1 µM | –
2 | B2 | 45 µM | 45 µM | – | – | 96 ± 11 µM
